From CN116018351A (SHANGHAI YOUTI JISHENG BIOMEDICAL CO LTD, dated 2023)

T1: CD123-Fc重组蛋白 (human, UniProt P26951 19-305)
T1 construct: also called CD123-Fc蛋白; 人CD123-Fc; not shown: Fc part
T1 sequence: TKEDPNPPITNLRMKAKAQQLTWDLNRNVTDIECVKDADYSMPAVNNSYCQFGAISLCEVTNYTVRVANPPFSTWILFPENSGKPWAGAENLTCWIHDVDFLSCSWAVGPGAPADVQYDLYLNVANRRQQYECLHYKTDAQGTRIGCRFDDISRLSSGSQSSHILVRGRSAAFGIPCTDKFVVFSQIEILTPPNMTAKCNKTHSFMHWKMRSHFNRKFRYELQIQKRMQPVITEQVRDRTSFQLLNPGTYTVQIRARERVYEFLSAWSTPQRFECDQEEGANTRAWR

B1: 抗CD123 scFv-C9 (in a CAR on T cells) (scFv)
scFv: QSVLTQPPSASGTPGQRVTISCSGSNSNIENNYVYWYQHLPGTAPKRLIYQNNQRPSGVPDRFSGSKSGTSASLAISGLRSEDEADYYCSAWDDSLSAWVFGGGTELTVLGGGGSGGGGSGGGGSEVHLVESGGGLVQPGRSLRLSCTASGFTFGDYAMNWVRQAPGKGLEWVGFIRSKASGGTTDYAASVKGRFTISRDDSKSIAYLQMNSLKTEDTAVYYCTRALRGYSYGLFDYWGQGTLVTVSS
notes: Human scFv from phage display; not shown: rest of the CAR, hinge domain to CD3-zeta domain
B2: 抗CD123 scFv-C5 (in a CAR on T cells) (scFv)
scFv: NFMLTQPHSVSESPGKTVTLSCTRSSGSIAGSYVQWYQQRPGSSPTTVIFQDNQRPSGVPDRFSGSIDKSSNSASLTISGLKTEDEADYYCQSYDSNNQVFGGGTKLTVLGGGGSGGGGSGGGGSEVHLVESGGGVVRPGGSLRLSCAASGFTFGDYGMSWVRQAPGKGLEWVSGINWNGGRTGYADSVKGRFTISRDNAKNSLYLQMNSLRAEDTALYYCARARGSGSYFGYMDVWGKGTTVTVSS
notes: Human scFv from phage display; also called 抗-CD123-C5; not shown: rest of the CAR, hinge domain to CD3-zeta domain
B3: 抗CD123 scFv-C11 (in a CAR on T cells) (scFv)
scFv: QSVVTQPPSASGTPGQRVTISCSGSSSNIGSNYVYWYQQLPGTAPKLLIYRNNQRPSGVPDRFSGSKSGTSASLAISGLRSEDEADYYCAAWDDSLSGYVFGTGTKLTVLGGGGSGGGGSGGGGSEVQLVESGGGLVQPGRSLRLSCTASGFTFGDYAMSWVRQAPGKGLEWVGFIRSKAYGGTTEYAASVKGRFTISRDDSKSIAYLQMNSLKTEDTAVYYCTRDIGYYGSGSYSPFDYWGQGTLVTVSS
notes: Human scFv from phage display; also called 抗-CD123-C11; not shown: rest of the CAR, hinge domain to CD3-zeta domain
B4: 抗CD123 scFv-C29 (in a CAR on T cells) (scFv)
scFv: QPVLTQPPSASGTPGQRVTISCSGSSSNIGSNYVYWYQQLPGTAPKLLIYRNNQRPSGVPDRFSGSKSGTSASLAISGLRSEDEADYYCAAWDDSLSGYVFGTGTKVTVLGGGGSGGGGSGGGGSEVHLVESGGGLVQPGRSLRLSCTASGFTFGDYAMSWVRQAPGKGLEWVGFIRSKAYGGTTEYAASVKGRFTISRDDSKSIAYLQMNSLKTEDTAVYYCTRDIGYYGSGSYSPFDYWGQGTLVTVSS
notes: as for B1
B5: 抗CD123 scFv-C4 (in a CAR on T cells) (scFv)
scFv: QSALTQPPSASGTPGQRVTISCSGSSSNIGSNYVNWYQQLPGTAPKLLIYRNNQRPSGVPDRFSGSKSGTSASLAISGLRSEDEADYYCAAWDDSLSGHGVFGTGTELTVLGGGGSGGGGSGGGGSQVQLVQSGPEVKKPGASVKVSCKASGYDFIRYYMNWVRQAPGQGPEWMGAIDPSDGDTTYGQKFQGRVTLTRDTFTSTVYMELSSLRSEDTAVYYCARDWELTNSYGLDVWGQGTTVTVSS
notes: as for B1
B6: 抗CD123 scFv-C17 (in a CAR on T cells) (scFv)
scFv: QSALTQPASVSGSLGQSITISCTGTSSDVGTYDYVSWYQQHPGKAPKLMIYDVTYRPSGVSHRFSGSKSGNTASLTISGLQADDEADYYCQQYNNWPPRYTFGQGTKVEIKGGGGSGGGGSGGGGSQVQLVQSGAEVEKPGASVKLSCTASGYNFNSYYMHWVRLTPGQGLEWMGLINPTNGRTTYAQKFQGRVTMTGDTSTRTVYLALSSLRSEDSALYYCARGSPPHIFDPDFDYWGQGTLVTVSS
notes: as for B1
B7: 抗CD123 scFv-C6 (in a CAR on T cells) (scFv)
scFv: SYELTQPPSVSVSPGQTARIPCSGADLGDQYVSWYQHQPGQSPLLVIYEDDKRPSGIPERFSGSNSGNTATLTISGTQAMDEADYYCQAWDGNAAIFGGGTKLTVLGGGGSGGGGSGGGGSQVQLVQSGGGSVQPGGSLRLSCAASGFTFTRYSMNWVRQAPGKGLEWVSYISSSSSTIYYADSVKGRFTISRDNAKNSLYLQMNSLRDEDTAVYYCARDGYGGNSDYYGMDVWGQGTTVTVSS
notes: as for B1
B8: 抗CD123 scFv-C26 (in a CAR on T cells) (scFv)
scFv: QSVLTQPPSASGTPGQRVTISCSGSRSNIGSNTVSWYQQFPGTAPKLLIYLNNQRPSGVPDRFSGSKSGTSASLAISGLQSEDEAEYYCATWDDDLNGVFGGGTKLTVLGGGGSGGGGSGGGGSEVQLVESGGGLVQPGGSLRLSCAASGFTLSNFEMNWVRQAPGRGLEWVSYISATTSATSYADSVKGRFTISRDNAKNSLYLQMNSLRAEDTAVYYCARVRDGYNFGYYYYYMDVWGKGTTVTVSS
notes: as for B1
B9: 抗CD123 scFv-C18 (in a CAR on T cells) (scFv)
scFv: QSALTQPASVSGSPGQSITISCTGTSSDVGGYNYVSWYQQHPGKAPKLMIYDVSNRPSGVSNRFSGSKSGNTASLTISGLQAEDEADYYCSSYTSSSTLFVFGTGTELTVLGGGGSGGGGSGGGGSQVQLQESGPGLVKPSQTLSLTCTVSGGSISSGDYYWSWIRQSPGKGLEWIGYIHSTGTTYYNPSLKSRLTISLDTSKNQFSLKLNSVTAADTAVYYCARGGVGTIFNYWGQGTLVTVSS
notes: as for B1
B10: 抗CD123 scFv-C15 (in a CAR on T cells) (scFv)
scFv: DIQLTQSPSTLSASVGDRVTISCRASQSISSWLAWYQHKPGKAPKLLIYKTSALEDGVPSRFSGSGSGTEFTLTISSLQPDDFATYFCLHYGSYTFGQGTKVDIKGGGGSGGGGSGGGGSEVQLVESGGGLVNPGGSLRLSCEASGFTFSDYYISWIRQAPGKGLEWISYISGSSTYTDFADSVKGRFTISRDNAKNTVFLQMNSLRAEDTAVYYCARDRRGRFDPWGQGTLVTVSS
notes: as for B1
B11: 抗CD123 scFv-C30 (in a CAR on T cells) (scFv)
scFv: AIRLTQSPSSLSASVGDRVTITCQASQNINNYLNWYQQKSGKAPKLLIYDASNLEAGVPSRFSGSASGTDFTFTISSLQPEDIATYYCQQNDNLPLTFGQGTRLEIKGGGGSGGGGSGGGGSEVQLVESGGGVVRPGGSLRLSCAASGFTFGDYGMSWVRQAPGKGLEWVSGINWNGGSTGYADSVKGRFTISRDNAKNSLYLQMNSLRAEDTALYYCARDRAPDYGDYLQVGTTDYWGQGTLVTVSS
notes: as for B1
B12: 抗CD123 scFv-C14 (in a CAR on T cells) (scFv)
scFv: DIRMTQSPSSLSASVGDRVTITCQASQDITNYLNWYHQKPGKAPKLLIYDASNLETGVPSRFSGGGSGTDFTFTISSLQSEDIGTYYCQQYDDLPLTFGGGTKVEIKGGGGSGGGGSGGGGSQVQLQESGPGLVKPSETLSLTCTVSGGSISSSSHYWGWIRQPPGKGLEWIGSIYYSGSTYYNPSLKSRVTISVDTSKNQFSLKLSSVTAADTAVYYCARRVWVWPTYGMDVWGQGTTVTVSS
notes: as for B1
B13: 抗CD123 scFv-C2 (in a CAR on T cells) (scFv)
scFv: QSVVTQPPSVSAAPGQKVTISCSGSSSNIGNNYVSWYQQFPGTAPKLLIYDNNKRPSGIPDRFSGSKSGTSGTLGITGLQTGDEADYYCVTWDTSLSAGVFGGGTKLTVLGGGGSGGGGSGGGGSQITLKESGGGLVKPGGSLRLSCAASGFTFSNAWMSWVRQAPGKGLEWVGRIKSKTDGGTTDYAAPVKGRFTISRDDSKNTLYLQMNSLKTEDTAVYYCTTDPHGYYYGMDVWGQGTTVTVSS
notes: as for B1
B14: 抗CD123 scFv-C16 (in a CAR on T cells) (scFv)
scFv: QSVVTQPPSASGTPGQRVTISCSGSSSNIEGNTVSWYQQFPGAAPKLLIYSNSYRASGVPDRFSGSKSGTSASLAISELQSEDEADYYCSAWDDSLNGPVFGGGTELTVLGGGGSGGGGSGGGGSQVQLQESGGGLVQPGGSLRLSCAASGFTFSSYSMNWVRQAPGKGLEWVSYISSSSSTIYYADSVKGRFTISRDNAKNSLYLQMNSLRAEDTAVYYCARDIYGDWDYYYYGMDVWGQGTTVTVSS
notes: as for B1

Each binder was assayed against T1, CD123-Fc重组蛋白 (assay: FACS staining of CAR T cells with CD123-Fc recombinant protein).
B1: binds. B2: binds. B3: binds. B4: binds. B5: binds. B6: binds. B7: binds. B8: binds. B9: binds. B10: binds. B11: binds. B12: binds. B13: binds. B14: binds.
